target: T1, CD3 epsilon homodimer protein (UniProt P07766 23-126); test: SPR (Biacore T200), CD3 epsilon homodimer on CM4 chip, one-arm antibody as analyte; ratio to unaltered CE115HA000;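 note: surface plasmon resonance run at 25 °C with HBS-EP+ as running buffer, CD3 epsilon homodimer attached by amine coupling, antibody passed over as analyte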
T1 construct: Construct of the homodimer protein is not described; also called CD3 (CD3 epsilon)
T1 sequence (P07766 23-126): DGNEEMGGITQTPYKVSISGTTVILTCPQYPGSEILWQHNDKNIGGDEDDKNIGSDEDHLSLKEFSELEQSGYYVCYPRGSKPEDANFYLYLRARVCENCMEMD

Binder | KD ratio (KD value of CE115HA000/KD value of the altered form)
CE115HA000 Y97S one-arm antibody (antibody, human IgG1, kappa, L234A L235A, N297A, name in Kabat numbering, one-arm antibody) heavy: QVQLVESGGGVVQPGRSLRLSCAASGFTFSNAWMHWVRQAPGKGLEWVAQIKAKSNNYATYYAESVKGRFTISRDDSKNSLYLQMNSLKTEDTAVYYCRYVHSGAYYGVDAWGQGTTVTVSSASTKGPSVFPLAPSSKSTSGGTAALGCLVKDYFPEPVTVSWNSGALTSGVHTFPAVLQSSGLYSLSSVVTVPSSSLGTQTYICNVNHKPSNTKVDKKVEPKSCDKTHTCPPCPAPEAAGGPSVFLFPPKPKDTLMISRTPEVTCVVVDVSHEDPEVKFNWYVDGVEVHNAKTKPREEQYASTYRVVSVLTVLHQDWLNGKEYKCKVSNKALPAPIEKTISKAKGQPREPQVYTLPPSRCELTKNQVSLSCAVKGFYPSDIAVEWESNGQPENNYKTTPPVLDSDGSFFLVSKLTVDKSRWQQGNVFSCSVMHEALHNHYTQKSLSLSPDYKDDDDK EPKSSDKTHTCPPCPAPELLGGPSVFLFPPKPKDTLMISRTPEVTCVVVDVSHEDPEVKFNWYVDGVEVHNAKTKPREEQYNSTYRVVSVLTVLHQDWLNGKEYKCKVSNKALPAPIEKTISKAKGQPREPQVCTLPPSRDELTKNQVSLWCLVKGFYPSDIAVEWESNGQPENNYKTTPPVLDSDGSFFLYSKLTVDKSRWQQGNVFSCSVMHEALHNRYTQKSLSLSP light: DIVMTQSPLSLPVTPGEPASISCRSSQSLVHSNRNTYLHWYQQKPGQAPRLLIYKVSNRFSGVPDRFSGSGSGTDFTLKISRVEAEDVGVYYCGQGTQVPYTFGQGTKLEIKRTVAAPSVFIFPPSDEQLKSGTASVVCLLNNFYPREAKVQWKVDNALQSGNSQESVTEQDSKDSTYSLSSTLTLSKADYEKHKVYACEVTHQGLSSPVTKSFNRGEC | 1180
CE115HA000 Y100A one-arm antibody (antibody, human IgG1, kappa, L234A L235A, N297A, name in Kabat numbering, one-arm antibody) heavy: QVQLVESGGGVVQPGRSLRLSCAASGFTFSNAWMHWVRQAPGKGLEWVAQIKAKSNNYATYYAESVKGRFTISRDDSKNSLYLQMNSLKTEDTAVYYCRYVHYGAAYGVDAWGQGTTVTVSSASTKGPSVFPLAPSSKSTSGGTAALGCLVKDYFPEPVTVSWNSGALTSGVHTFPAVLQSSGLYSLSSVVTVPSSSLGTQTYICNVNHKPSNTKVDKKVEPKSCDKTHTCPPCPAPEAAGGPSVFLFPPKPKDTLMISRTPEVTCVVVDVSHEDPEVKFNWYVDGVEVHNAKTKPREEQYASTYRVVSVLTVLHQDWLNGKEYKCKVSNKALPAPIEKTISKAKGQPREPQVYTLPPSRCELTKNQVSLSCAVKGFYPSDIAVEWESNGQPENNYKTTPPVLDSDGSFFLVSKLTVDKSRWQQGNVFSCSVMHEALHNHYTQKSLSLSPDYKDDDDK EPKSSDKTHTCPPCPAPELLGGPSVFLFPPKPKDTLMISRTPEVTCVVVDVSHEDPEVKFNWYVDGVEVHNAKTKPREEQYNSTYRVVSVLTVLHQDWLNGKEYKCKVSNKALPAPIEKTISKAKGQPREPQVCTLPPSRDELTKNQVSLWCLVKGFYPSDIAVEWESNGQPENNYKTTPPVLDSDGSFFLYSKLTVDKSRWQQGNVFSCSVMHEALHNRYTQKSLSLSP light: DIVMTQSPLSLPVTPGEPASISCRSSQSLVHSNRNTYLHWYQQKPGQAPRLLIYKVSNRFSGVPDRFSGSGSGTDFTLKISRVEAEDVGVYYCGQGTQVPYTFGQGTKLEIKRTVAAPSVFIFPPSDEQLKSGTASVVCLLNNFYPREAKVQWKVDNALQSGNSQESVTEQDSKDSTYSLSSTLTLSKADYEKHKVYACEVTHQGLSSPVTKSFNRGEC | 0.92
CE115HA000 Y100D one-arm antibody (antibody, human IgG1, kappa, L234A L235A, N297A, name in Kabat numbering, one-arm antibody) heavy: QVQLVESGGGVVQPGRSLRLSCAASGFTFSNAWMHWVRQAPGKGLEWVAQIKAKSNNYATYYAESVKGRFTISRDDSKNSLYLQMNSLKTEDTAVYYCRYVHYGADYGVDAWGQGTTVTVSSASTKGPSVFPLAPSSKSTSGGTAALGCLVKDYFPEPVTVSWNSGALTSGVHTFPAVLQSSGLYSLSSVVTVPSSSLGTQTYICNVNHKPSNTKVDKKVEPKSCDKTHTCPPCPAPEAAGGPSVFLFPPKPKDTLMISRTPEVTCVVVDVSHEDPEVKFNWYVDGVEVHNAKTKPREEQYASTYRVVSVLTVLHQDWLNGKEYKCKVSNKALPAPIEKTISKAKGQPREPQVYTLPPSRCELTKNQVSLSCAVKGFYPSDIAVEWESNGQPENNYKTTPPVLDSDGSFFLVSKLTVDKSRWQQGNVFSCSVMHEALHNHYTQKSLSLSPDYKDDDDK EPKSSDKTHTCPPCPAPELLGGPSVFLFPPKPKDTLMISRTPEVTCVVVDVSHEDPEVKFNWYVDGVEVHNAKTKPREEQYNSTYRVVSVLTVLHQDWLNGKEYKCKVSNKALPAPIEKTISKAKGQPREPQVCTLPPSRDELTKNQVSLWCLVKGFYPSDIAVEWESNGQPENNYKTTPPVLDSDGSFFLYSKLTVDKSRWQQGNVFSCSVMHEALHNRYTQKSLSLSP light: DIVMTQSPLSLPVTPGEPASISCRSSQSLVHSNRNTYLHWYQQKPGQAPRLLIYKVSNRFSGVPDRFSGSGSGTDFTLKISRVEAEDVGVYYCGQGTQVPYTFGQGTKLEIKRTVAAPSVFIFPPSDEQLKSGTASVVCLLNNFYPREAKVQWKVDNALQSGNSQESVTEQDSKDSTYSLSSTLTLSKADYEKHKVYACEVTHQGLSSPVTKSFNRGEC | 0.63
CE115HA000 Y100G one-arm antibody (antibody, human IgG1, kappa, L234A L235A, N297A, name in Kabat numbering, one-arm antibody) heavy: QVQLVESGGGVVQPGRSLRLSCAASGFTFSNAWMHWVRQAPGKGLEWVAQIKAKSNNYATYYAESVKGRFTISRDDSKNSLYLQMNSLKTEDTAVYYCRYVHYGAGYGVDAWGQGTTVTVSSASTKGPSVFPLAPSSKSTSGGTAALGCLVKDYFPEPVTVSWNSGALTSGVHTFPAVLQSSGLYSLSSVVTVPSSSLGTQTYICNVNHKPSNTKVDKKVEPKSCDKTHTCPPCPAPEAAGGPSVFLFPPKPKDTLMISRTPEVTCVVVDVSHEDPEVKFNWYVDGVEVHNAKTKPREEQYASTYRVVSVLTVLHQDWLNGKEYKCKVSNKALPAPIEKTISKAKGQPREPQVYTLPPSRCELTKNQVSLSCAVKGFYPSDIAVEWESNGQPENNYKTTPPVLDSDGSFFLVSKLTVDKSRWQQGNVFSCSVMHEALHNHYTQKSLSLSPDYKDDDDK EPKSSDKTHTCPPCPAPELLGGPSVFLFPPKPKDTLMISRTPEVTCVVVDVSHEDPEVKFNWYVDGVEVHNAKTKPREEQYNSTYRVVSVLTVLHQDWLNGKEYKCKVSNKALPAPIEKTISKAKGQPREPQVCTLPPSRDELTKNQVSLWCLVKGFYPSDIAVEWESNGQPENNYKTTPPVLDSDGSFFLYSKLTVDKSRWQQGNVFSCSVMHEALHNRYTQKSLSLSP light: DIVMTQSPLSLPVTPGEPASISCRSSQSLVHSNRNTYLHWYQQKPGQAPRLLIYKVSNRFSGVPDRFSGSGSGTDFTLKISRVEAEDVGVYYCGQGTQVPYTFGQGTKLEIKRTVAAPSVFIFPPSDEQLKSGTASVVCLLNNFYPREAKVQWKVDNALQSGNSQESVTEQDSKDSTYSLSSTLTLSKADYEKHKVYACEVTHQGLSSPVTKSFNRGEC | 0.97
CE115HA000 Y100K one-arm antibody (antibody, human IgG1, kappa, L234A L235A, N297A, name in Kabat numbering, one-arm antibody) heavy: QVQLVESGGGVVQPGRSLRLSCAASGFTFSNAWMHWVRQAPGKGLEWVAQIKAKSNNYATYYAESVKGRFTISRDDSKNSLYLQMNSLKTEDTAVYYCRYVHYGAKYGVDAWGQGTTVTVSSASTKGPSVFPLAPSSKSTSGGTAALGCLVKDYFPEPVTVSWNSGALTSGVHTFPAVLQSSGLYSLSSVVTVPSSSLGTQTYICNVNHKPSNTKVDKKVEPKSCDKTHTCPPCPAPEAAGGPSVFLFPPKPKDTLMISRTPEVTCVVVDVSHEDPEVKFNWYVDGVEVHNAKTKPREEQYASTYRVVSVLTVLHQDWLNGKEYKCKVSNKALPAPIEKTISKAKGQPREPQVYTLPPSRCELTKNQVSLSCAVKGFYPSDIAVEWESNGQPENNYKTTPPVLDSDGSFFLVSKLTVDKSRWQQGNVFSCSVMHEALHNHYTQKSLSLSPDYKDDDDK EPKSSDKTHTCPPCPAPELLGGPSVFLFPPKPKDTLMISRTPEVTCVVVDVSHEDPEVKFNWYVDGVEVHNAKTKPREEQYNSTYRVVSVLTVLHQDWLNGKEYKCKVSNKALPAPIEKTISKAKGQPREPQVCTLPPSRDELTKNQVSLWCLVKGFYPSDIAVEWESNGQPENNYKTTPPVLDSDGSFFLYSKLTVDKSRWQQGNVFSCSVMHEALHNRYTQKSLSLSP light: DIVMTQSPLSLPVTPGEPASISCRSSQSLVHSNRNTYLHWYQQKPGQAPRLLIYKVSNRFSGVPDRFSGSGSGTDFTLKISRVEAEDVGVYYCGQGTQVPYTFGQGTKLEIKRTVAAPSVFIFPPSDEQLKSGTASVVCLLNNFYPREAKVQWKVDNALQSGNSQESVTEQDSKDSTYSLSSTLTLSKADYEKHKVYACEVTHQGLSSPVTKSFNRGEC | 0.93
CE115HA000 Y100L one-arm antibody (antibody, human IgG1, kappa, L234A L235A, N297A, name in Kabat numbering, one-arm antibody) heavy: QVQLVESGGGVVQPGRSLRLSCAASGFTFSNAWMHWVRQAPGKGLEWVAQIKAKSNNYATYYAESVKGRFTISRDDSKNSLYLQMNSLKTEDTAVYYCRYVHYGALYGVDAWGQGTTVTVSSASTKGPSVFPLAPSSKSTSGGTAALGCLVKDYFPEPVTVSWNSGALTSGVHTFPAVLQSSGLYSLSSVVTVPSSSLGTQTYICNVNHKPSNTKVDKKVEPKSCDKTHTCPPCPAPEAAGGPSVFLFPPKPKDTLMISRTPEVTCVVVDVSHEDPEVKFNWYVDGVEVHNAKTKPREEQYASTYRVVSVLTVLHQDWLNGKEYKCKVSNKALPAPIEKTISKAKGQPREPQVYTLPPSRCELTKNQVSLSCAVKGFYPSDIAVEWESNGQPENNYKTTPPVLDSDGSFFLVSKLTVDKSRWQQGNVFSCSVMHEALHNHYTQKSLSLSPDYKDDDDK EPKSSDKTHTCPPCPAPELLGGPSVFLFPPKPKDTLMISRTPEVTCVVVDVSHEDPEVKFNWYVDGVEVHNAKTKPREEQYNSTYRVVSVLTVLHQDWLNGKEYKCKVSNKALPAPIEKTISKAKGQPREPQVCTLPPSRDELTKNQVSLWCLVKGFYPSDIAVEWESNGQPENNYKTTPPVLDSDGSFFLYSKLTVDKSRWQQGNVFSCSVMHEALHNRYTQKSLSLSP light: DIVMTQSPLSLPVTPGEPASISCRSSQSLVHSNRNTYLHWYQQKPGQAPRLLIYKVSNRFSGVPDRFSGSGSGTDFTLKISRVEAEDVGVYYCGQGTQVPYTFGQGTKLEIKRTVAAPSVFIFPPSDEQLKSGTASVVCLLNNFYPREAKVQWKVDNALQSGNSQESVTEQDSKDSTYSLSSTLTLSKADYEKHKVYACEVTHQGLSSPVTKSFNRGEC | 0.67
